Substitutions are numbered along the chain they refer to.
T1: Cas-alpha 10 A40G+E81G (Syntrophomonas palmitatica, UniProt P0DW62 SEQ:1-497)
T1 chain: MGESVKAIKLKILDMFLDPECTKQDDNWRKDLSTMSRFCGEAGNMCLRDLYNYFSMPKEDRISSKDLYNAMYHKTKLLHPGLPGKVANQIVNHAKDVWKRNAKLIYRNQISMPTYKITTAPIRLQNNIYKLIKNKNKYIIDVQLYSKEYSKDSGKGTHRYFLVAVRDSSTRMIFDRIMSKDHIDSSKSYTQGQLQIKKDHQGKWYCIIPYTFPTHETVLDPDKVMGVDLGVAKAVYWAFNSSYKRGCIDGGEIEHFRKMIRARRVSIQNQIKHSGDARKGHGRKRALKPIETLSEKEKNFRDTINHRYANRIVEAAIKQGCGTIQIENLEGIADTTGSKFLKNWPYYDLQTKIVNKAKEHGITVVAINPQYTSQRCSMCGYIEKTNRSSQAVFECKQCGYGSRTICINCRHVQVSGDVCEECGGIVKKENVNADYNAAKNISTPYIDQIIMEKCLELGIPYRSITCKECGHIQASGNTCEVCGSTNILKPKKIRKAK

T2: Cas-alpha 10 A40G+E81G+T335R (Syntrophomonas palmitatica, UniProt P0DW62 SEQ:1-497)
T2 chain: T1 chain with T335R

T3: Cas-alpha 10 E81G (Syntrophomonas palmitatica, UniProt P0DW62 SEQ:1-497)
T3 chain: T1 chain with G40A

T4: Cas-alpha 10 A40G (Syntrophomonas palmitatica, UniProt P0DW62 SEQ:1-497)
T4 chain: T1 chain with G81E

B1: sgRNA IR ; IR target (ssRNA ; dsDNA)
RNA: AUUUACUCUGUUUCGCGCGCCAGGGCAGUUAGGUGCCCUAAAAGAGCGAAGUGGCCGAAAGGAAAGGCUAACGCUUCUCUAACGCUACGGCGACCUUGGCGAAAUGCCAUCAAUACCACGCGGCCCGAAAGGGUUCGCGCGAAACUGAGUAAUGAAAGUCGCAUCUUGCGUAAGCGCGUGGAUUGAAACCACAGGGAGGGAGCAAACAA
DNA 1: CACAGGGAGGGAGCAAACAA
DNA 2: TTGTTTGCTCCCTCCCTGTG
B2: sgRNA1, ade2 target 2, 20 nt spacer ; ade2 target 2 (ssRNA ; dsDNA)
RNA: AUUUACUCUGUUUCGCGCGCCAGGGCAGUUAGGUGCCCUAAAAGAGCGAAGUGGCCGAAAGGAAAGGCUAACGCUUCUCUAACGCUACGGCGACCUUGGCGAAAUGCCAUCAAUACCACGCGGCCCGAAAGGGUUCGCGCGAAACUGAGUAAUGAAAGUCGCAUCUUGCGUAAGCGCGUGGAUUGAAACUUUAGUGUAGGAACAUCAAC
DNA 1: TTTAGTGTAGGAACATCAAC
DNA 2: GTTGATGTTCCTACACTAAA

Tests used:
Conditions in all cases: tags: SV40 NLS; chain copies: 2
Cas-alpha 10 A40G+E81G [1] = target: T1, Cas-alpha 10 A40G+E81G; experiment: cell_activity; PAM 5'-TTC; maize, 37 C
[2] = target: T2, Cas-alpha 10 A40G+E81G+T335R; experiment: cell_activity; PAM 5'-TTC; maize, 37 C
Cas-alpha 10 E81G = target: T3, Cas-alpha 10 E81G; experiment: cell_activity; PAM 5'-TTC; yeast, 45 C
Cas-alpha 10 A40G = target: T4, Cas-alpha 10 A40G; experiment: cell_activity; PAM 5'-TTC; yeast, 45 C
Cas-alpha 10 A40G+E81G [3] = target: T1, Cas-alpha 10 A40G+E81G; experiment: cell_activity; PAM 5'-TTC; yeast, 45 C; >10-fold sectored colonies at 37 C
Experimental: The cells were then resuspended in 1 ml of EZ 2 solution and aliquoted and either stored at −70° C. or used in the next step. Transformation was performed next by adding 0.5-1 μg (in less than 5 μl) of 2 micron yeast plasmid DNA to 50 μl of competent cells. Optionally, double-stranded DNA repair template with homology flanking the expected Cas-alpha double-strand break site was also included (0.5 μl at 50 μM). After gently mixing in the DNA, 500 μl of EZ 3 solution was added. Next, cells were incubated at 30° C. for 60-90 min. flicking or vortexing the cells 3-4 times over the duration of the incubation. After transformation, cells were grown-out in YPD broth for ˜3 hours, pelleted, washed once with 1 ml of sterile water, resuspended in 1 ml of sterile water, and then ˜200 μl plated onto selective media (for example but not limited to 6.7 g/L yeast nitrogen base without amino acids (Becton Dickinson), 20 g/L glucose (Phytotechnology Labs), 1.92 g/L yeast histidine dropout media (MP Biomedicals) and 20 g/L Bacto Agar (Becton Dickinson)). To determine the culture conditions optimal for activity, cells were incubated at 30° C. until colonies formed, or at a range of temperatures (typically 37° C. and 45° C.) overnight and then placed back at 30° C. until colony growth was visible. […]

| Binder | binding signal (Cas-alpha 10 A40G+E81G [1]) [fold vs wild type indels] | binding signal [2] [fold vs wild type indels] | binding signal (Cas-alpha 10 E81G) | binding signal (Cas-alpha 10 A40G) | binding signal (Cas-alpha 10 A40G+E81G [3]) |
| --- | --- | --- | --- | --- | --- |
| B1 | ~5 | ~17 |  |  |  |
| B2 |  |  | ~2 fold vs wild type (red colonies, score 2) | ~2 fold vs wild type (red colonies, score 2) | ~3 fold vs wild type (red colonies, score 2) |
